Source: US20040265972A1

Molecular target: human TSH receptor stably expressed on Chinese Hamster Ovary (CHO) cells (CHO-hTSHR clone JP09 and clone JP26) (human) (UniProt P16473)
Experiment: cell-based or functional assay

Substance “hTSH α4K/TSH-β-CTEP (heterodimer of mutant α4K subunit and human TSH-β subunit fused to the CTEP of hCG) (from UniProt P0DN86 134-165) (ligand)” has a Vmax (cyclic AMP production), fold increase compared to wild type TSH of 1.5 fold, an in vitro activity, fold over that of the α4K/TSH-β wild type heterodimer of 3 to 4 fold and a potency (cyclic AMP production), fold increase compared to wild type TSH of 200 fold.
